From article PMC10530651, “Mechanisms of Regulation of the CHRDL1 Gene by the TWIST2 and ADD1/SREBP1c Transcription Factors”

T1: TWIST2 Q119X (Homo sapiens, UniProt Q8WVJ9 1-118)
T1 sequence: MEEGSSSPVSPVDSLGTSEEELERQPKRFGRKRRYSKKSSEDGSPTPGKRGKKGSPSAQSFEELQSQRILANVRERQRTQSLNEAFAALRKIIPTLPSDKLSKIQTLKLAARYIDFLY

B1: CH2700EA (dsDNA)
DNA 1: TGGTGGTGGTCACATGAATATACACATGCGATAAAATT
DNA 2: AATTTTATCGCATGTGTATATTCATGTGACCACCACCA
B2: CH2600TWI (dsDNA)
DNA 1: TATATACACAGGCAAATGAGTGCATATAAA
DNA 2: TTTATATGCACTCATTTGCCTGTGTATATA

Assays:
TWIST2 Q119X [1] = biological target: T1, TWIST2 Q119X; assay: EMSA; homodimer; EMSA: 20 mM HEPES pH 7.9, 60 mM KCl, 1 mM MgCl2, 0.5 mM DTT, 10% glycerol, 10 µL with 1-3 µL TnT lysate; competitor at least 50x molar excess; 6% native gel, 0.5X TBE, 4 °C; binding temperature not stated; conditions: protein: ivt; tags: Myc; chain copies: 2; label: 32P as probe; blunt
TWIST2 Q119X [2] = biological target: T1, TWIST2 Q119X; assay: EMSA; EMSA: 20 mM HEPES pH 7.9, 60 mM KCl, 1 mM MgCl2, 0.5 mM DTT, 10% glycerol, 10 µL with 1-3 µL TnT lysate; competitor at least 50x molar excess; 6% native gel, 0.5X TBE, 4 °C; binding temperature not stated; conditions: protein: ivt; tags: Myc; chain copies: 2; label: 32P as probe; blunt

Binder | binding result (TWIST2 Q119X [1]) | binding result (TWIST2 Q119X [2])
B1 | no binding | –
B2 | – | no binding
